# Assays:
# [1] = target: DLL4-Fc (UniProt Q9JI71); assay: flow cytometry on cells (cell-based binding assay); conditions: read off a plot; for response: HEK293T cells overexpressing N1 without Lfng cDNA, MFI normalised to N1+LFNG = 100%, parent: est. 79; for percent of parent: HEK293T cells overexpressing N1 with Lfng cDNA, N1+LFNG set to 100%, parent: est. 100
# [2] = target: DLL1-Fc (UniProt Q61483); assay: flow cytometry on cells (cell-based binding assay); conditions: HEK293T cells overexpressing N1 with Lfng cDNA; N1+LFNG set to 100%; parent: est. 100; read off a plot
substance,measurement,setting,value
"full-length mouse NOTCH1 (WT N1), expressed without LFNG (from UniProt Q01705) N1-27V (Thr of the O-fucose site in EGF27 changed to Val; residue number not printed)",response,[1],82 MFI(%)
"full-length mouse NOTCH1 (WT N1), coexpressed with LFNG (from UniProt Q01705) N1-27V (Thr of the O-fucose site in EGF27 changed to Val; residue number not printed)",percent of parent,[2],71 MFI(%)
same,percent of parent,[1],92 MFI(%)
"full-length mouse NOTCH1 (WT N1), expressed without LFNG (from UniProt Q01705) N1-6V (Thr of the O-fucose site in EGF6 changed to Val; residue number not printed)",response,[1],75 MFI(%)
"full-length mouse NOTCH1 (WT N1), coexpressed with LFNG (from UniProt Q01705) N1-16V (Thr of the O-fucose site in EGF16 changed to Val; residue number not printed)",percent of parent,[2],90 MFI(%)
same,percent of parent,[1],89 MFI(%)
"full-length mouse NOTCH1 (WT N1), expressed without LFNG (from UniProt Q01705) N1-16V (Thr of the O-fucose site in EGF16 changed to Val; residue number not printed)",response,[1],79 MFI(%)
"full-length mouse NOTCH1 (WT N1), coexpressed with LFNG (from UniProt Q01705) N1-26V (Thr of the O-fucose site in EGF26 changed to Val; residue number not printed)",percent of parent,[2],89 MFI(%)
same,percent of parent,[1],100 MFI(%)
"full-length mouse NOTCH1 (WT N1), expressed without LFNG (from UniProt Q01705) N1-26V (Thr of the O-fucose site in EGF26 changed to Val; residue number not printed)",response,[1],85 MFI(%)
"full-length mouse NOTCH1 (WT N1), coexpressed with LFNG (from UniProt Q01705) N1-6V (Thr of the O-fucose site in EGF6 changed to Val; residue number not printed)",percent of parent,[2],92 MFI(%)
same,percent of parent,[1],100 MFI(%)
